Measurements published in patent US20250236657A1 (TOSOH, published 2025).
Numbering of substitutions follows the chain as printed.

Assays:
AAV2 G383A [1] = biological target: T1, AAV2 G383A (adeno-associated virus serotype 2 (AAV2), UniProt P03135 1-735); experiment: affinity HPLC on AVR11a column, pH gradient 6.0 to 2.0; no elution peak, not adsorbed and passed through
T1 construct: Recombinant AAV2 vector particles in filtered cell lysate

AAV2 D529A [2] = biological target: T2, AAV2 D529A (adeno-associated virus serotype 2 (AAV2), UniProt P03135 1-735); experiment: as above
T2 construct: Recombinant AAV2 vector particles in filtered cell lysate

AAV2 H271T [3] = biological target: T3, AAV2 H271T (adeno-associated virus serotype 2 (AAV2), UniProt P03135 1-735); experiment: as above
T3 construct: Recombinant AAV2 vector particles in filtered cell lysate

AAV2 H271F [4] = biological target: T4, AAV2 H271F (adeno-associated virus serotype 2 (AAV2), UniProt P03135 1-735); experiment: as above
T4 construct: Recombinant AAV2 vector particles in filtered cell lysate

AAV2 H271Q [5] = biological target: T5, AAV2 H271Q (adeno-associated virus serotype 2 (AAV2), UniProt P03135 1-735); experiment: as above
T5 construct: Recombinant AAV2 vector particles in filtered cell lysate

AAV2 H271A [6] = biological target: T6, AAV2 H271A (adeno-associated virus serotype 2 (AAV2), UniProt P03135 1-735); experiment: as above
T6 construct: Recombinant AAV2 vector particles in filtered cell lysate

AAV2 S384A [7] = biological target: T7, AAV2 S384A (adeno-associated virus serotype 2 (AAV2), UniProt P03135 1-735); experiment: affinity HPLC, AVR11a immobilization gel, linear pH gradient 6.0 to 2.0, AAV2 peak top
T7 construct: Recombinant AAV2 vector particles in filtered cell lysate

AAV2 S267A [8] = biological target: T8, AAV2 S267A (adeno-associated virus serotype 2 (AAV2), UniProt P03135 1-735); experiment: as above
T8 construct: Recombinant AAV2 vector particles in filtered cell lysate

AAV2 D529E [9] = biological target: T9, AAV2 D529E (adeno-associated virus serotype 2 (AAV2), UniProt P03135 1-735); experiment: as above
T9 construct: Recombinant AAV2 vector particles in filtered cell lysate

AAV2 S264A [10] = biological target: T10, AAV2 S264A (adeno-associated virus serotype 2 (AAV2), UniProt P03135 1-735); experiment: as above
T10 construct: Recombinant AAV2 vector particles in filtered cell lysate

AAV2 S267T [11] = biological target: T11, AAV2 S267T (adeno-associated virus serotype 2 (AAV2), UniProt P03135 1-735); experiment: as above
T11 construct: Recombinant AAV2 vector particles in filtered cell lysate

AAV2 T503S [12] = biological target: T12, AAV2 T503S (adeno-associated virus serotype 2 (AAV2), UniProt P03135 1-735); experiment: as above
T12 construct: Recombinant AAV2 vector particles in filtered cell lysate

[13] = biological target: T13, AAV2 (wild type), serotype 2 AAV with capsid region VP1 of SEQ ID NO: 99 (adeno-associated virus serotype 2 (AAV2), UniProt P03135 1-735); experiment: as above
T13 construct: Recombinant AAV2 vector particles (EGFP genome) in filtered cell lysate; the capsid is assembled from VP1, VP2 and VP3

AAV2 R471A [14] = biological target: T14, AAV2 R471A (adeno-associated virus serotype 2 (AAV2), UniProt P03135 1-735); experiment: as above
T14 construct: Recombinant AAV2 vector particles in filtered cell lysate

AAV2 N382A [15] = biological target: T15, AAV2 N382A (adeno-associated virus serotype 2 (AAV2), UniProt P03135 1-735); experiment: as above
T15 construct: Recombinant AAV2 vector particles in filtered cell lysate

AAV2 E499A [16] = biological target: T16, AAV2 E499A (adeno-associated virus serotype 2 (AAV2), UniProt P03135 1-735); experiment: as above
T16 construct: Recombinant AAV2 vector particles in filtered cell lysate

AAV2 Q263A [17] = biological target: T17, AAV2 Q263A (adeno-associated virus serotype 2 (AAV2), UniProt P03135 1-735); experiment: as above
T17 construct: Recombinant AAV2 vector particles in filtered cell lysate

AAV2 D528A [18] = biological target: T18, AAV2 D528A (adeno-associated virus serotype 2 (AAV2), UniProt P03135 1-735); experiment: as above
T18 construct: Recombinant AAV2 vector particles in filtered cell lysate

AAV2 Q385A [19] = biological target: T19, AAV2 Q385A (adeno-associated virus serotype 2 (AAV2), UniProt P03135 1-735); experiment: as above
T19 construct: Recombinant AAV2 vector particles in filtered cell lysate

AAV2 G383A [20] = biological target: T1, AAV2 G383A; experiment: affinity HPLC on AVR10s column, pH gradient 4.5 to 2.2; no elution peak, not adsorbed and passed through
AAV2 D529A [21] = biological target: T2, AAV2 D529A; experiment: as above
AAV2 H271F [22] = biological target: T4, AAV2 H271F; experiment: as above
AAV2 S384A [23] = biological target: T7, AAV2 S384A; experiment: affinity HPLC, AVR10s immobilization gel, linear pH gradient 4.5 to 2.2, AAV2 peak top
AAV2 H271T [24] = biological target: T3, AAV2 H271T; experiment: as above
AAV2 S267A [25] = biological target: T8, AAV2 S267A; experiment: as above
AAV2 D529E [26] = biological target: T9, AAV2 D529E; experiment: as above
AAV2 S264A [27] = biological target: T10, AAV2 S264A; experiment: as above
AAV2 S267T [28] = biological target: T11, AAV2 S267T; experiment: as above
AAV2 H271Q [29] = biological target: T5, AAV2 H271Q; experiment: as above
AAV2 H271A [30] = biological target: T6, AAV2 H271A; experiment: as above
AAV2 T503S [31] = biological target: T12, AAV2 T503S; experiment: as above
[32] = biological target: T13, AAV2 (wild type), serotype 2 AAV with …; experiment: as above
AAV2 R471A [33] = biological target: T14, AAV2 R471A; experiment: as above
AAV2 N382A [34] = biological target: T15, AAV2 N382A; experiment: as above
AAV2 E499A [35] = biological target: T16, AAV2 E499A; experiment: as above
AAV2 Q263A [36] = biological target: T17, AAV2 Q263A; experiment: as above
AAV2 D528A [37] = biological target: T18, AAV2 D528A; experiment: as above
AAV2 Q385A [38] = biological target: T19, AAV2 Q385A; experiment: as above

B1: AAV-binding protein AVR11a with cysteine tag (SEQ ID NO: 100), immobilised as AVR11a immobilization gel (receptor)
chain: MGSAGESDQITLPKNEVQLNVYVLQEPPKGETSTYDWQLITHPRDYSGEMEGEHSQILKLSNLTPGLYEFKAVVEGQNAHSEGYVNVTVEPEPRKNRPPIAIVSPQFQEISLPTTSTVIDGSQSTDDDKIVQYHWEELKGPLREEKISEDTAILKLSKLVPGNYTFRLTVVDSDGATDSTTANLTVNKAVDHHHHHHCRNDTCG
modifications: immobilised on a TOYOPEARL carrier with iodoacetamide groups; cysteine tag sequence serving as immobilization tag at positions 220-226
notes: KIAA0319L PKD1 and PKD2 with 11 substitutions (AVR10s plus Ala330Val); also called AVR11a column
**Q.** Does B1 bind (AAV2 G383A [1])?
**A.** no binding

**Q.** Does B1 bind (AAV2 D529A [2])?
**A.** no binding

**Q.** Does B1 bind (AAV2 H271T [3])?
**A.** no binding

**Q.** Does B1 bind (AAV2 H271F [4])?
**A.** no binding

**Q.** Does B1 bind (AAV2 H271Q [5])?
**A.** no binding

**Q.** Does B1 bind (AAV2 H271A [6])?
**A.** no binding

**Q.** What about the “AVR11a column elution time” value (AAV2 S384A [7]) of the same binder?
**A.** 58.6 min

**Q.** What about the “AVR11a column elution time” value (AAV2 S267A [8]) of the same binder?
**A.** 59.4 min

**Q.** What about the “AVR11a column elution time” value (AAV2 D529E [9]) of the same binder?
**A.** 54.5 min

**Q.** And the “AVR11a column elution time” value (AAV2 S264A [10])?
**A.** 59.6 min

**Q.** And the “AVR11a column elution time” value (AAV2 S267T [11])?
**A.** 59.2 min

**Q.** And the “AVR11a column elution time” value (AAV2 T503S [12])?
**A.** 55.2 min

**Q.** What about the “AVR11a column elution time” value [13] of the same binder?
**A.** 59.8 min

**Q.** What about the “AVR11a column elution time” value (AAV2 R471A [14]) of the same binder?
**A.** 60.3 min

**Q.** And the “AVR11a column elution time” value (AAV2 N382A [15])?
**A.** 53.5 min

**Q.** And the “AVR11a column elution time” value (AAV2 E499A [16])?
**A.** 59.3 min

**Q.** And the “AVR11a column elution time” value (AAV2 Q263A [17])?
**A.** 60.2 min

**Q.** What about the “AVR11a column elution time” value (AAV2 D528A [18]) of the same binder?
**A.** 55.5 min

**Q.** And the “AVR11a column elution time” value (AAV2 Q385A [19])?
**A.** 57.7 min

B2: AAV-binding protein AVR10s with cysteine tag (SEQ ID NO: 97), immobilised as AVR10s immobilization gel (receptor)
chain: B1 chain with V21A
modifications: immobilised on a TOYOPEARL carrier with iodoacetamide groups; cysteine tag sequence serving as immobilization tag at positions 220-226
notes: purified on Ni Sepharose and coupled to the carrier; also called AVR10s column
**Q.** Does B2 bind (AAV2 G383A [20])?
**A.** no binding

**Q.** Does B2 bind (AAV2 D529A [21])?
**A.** no binding

**Q.** Does B2 bind (AAV2 H271F [22])?
**A.** no binding

**Q.** What about the “AVR10s column elution time” value (AAV2 S384A [23]) of the same binder?
**A.** 52.1 min

**Q.** And the “AVR10s column elution time” value (AAV2 H271T [24])?
**A.** 42.6 min

**Q.** What about the “AVR10s column elution time” value (AAV2 S267A [25]) of the same binder?
**A.** 52.9 min

**Q.** And the “AVR10s column elution time” value (AAV2 D529E [26])?
**A.** 47 min

**Q.** What about the “AVR10s column elution time” value (AAV2 S264A [27]) of the same binder?
**A.** 53.7 min

**Q.** And the “AVR10s column elution time” value (AAV2 S267T [28])?
**A.** 54.2 min

**Q.** What about the “AVR10s column elution time” value (AAV2 H271Q [29]) of the same binder?
**A.** 46.4 min

**Q.** And the “AVR10s column elution time” value (AAV2 H271A [30])?
**A.** 46.7 min

**Q.** What about the “AVR10s column elution time” value (AAV2 T503S [31]) of the same binder?
**A.** 48 min

**Q.** And the “AVR10s column elution time” value [32]?
**A.** 54.4 min

**Q.** What about the “AVR10s column elution time” value (AAV2 R471A [33]) of the same binder?
**A.** 53.4 min

**Q.** And the “AVR10s column elution time” value (AAV2 N382A [34])?
**A.** 46.4 min

**Q.** What about the “AVR10s column elution time” value (AAV2 E499A [35]) of the same binder?
**A.** 53.1 min

**Q.** What about the “AVR10s column elution time” value (AAV2 Q263A [36]) of the same binder?
**A.** 54.4 min

**Q.** What about the “AVR10s column elution time” value (AAV2 D528A [37]) of the same binder?
**A.** 47.5 min

**Q.** And the “AVR10s column elution time” value (AAV2 Q385A [38])?
**A.** 50.9 min
